Assays:
[1] = target: PefR (porphyrin-regulated efflux regulator) from Streptococcus agalactiae, non-His-tagged (Streptococcus agalactiae); experiment: SEC; gel filtration of holo-PefR (heme-bound)
[2] = target: PefR (porphyrin-regulated efflux regulator) from Streptococcus agalactiae, non-His-tagged (Streptococcus agalactiae); experiment: SEC; gel filtration of purified apo-PefR (heme-free); single peak, estimated ~35 kDa against ca. 17 kDa for the monomer
[3] = target: T1, PefR (holo-PefR, ferrous heme-bound) (Streptococcus agalactiae, UniProt R4Z9I5); assay type: binding
T1 construct: gene AX245_08385; recombinant holo-PefR, homodimer
T1 sequence (R4Z9I5 1-146): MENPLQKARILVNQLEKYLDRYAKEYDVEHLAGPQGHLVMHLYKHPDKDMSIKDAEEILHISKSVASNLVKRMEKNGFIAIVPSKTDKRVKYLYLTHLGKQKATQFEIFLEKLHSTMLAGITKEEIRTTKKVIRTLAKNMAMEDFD

[4] = target: T2, PefR (porphyrin-regulated efflux regulator) (Streptococcus agalactiae, UniProt R4Z9I5); experiment: biochemical; assay type: binding
T2 construct: gene AX245_08385; recombinant PefR, C-terminal His tag removed with HRV3C protease; homodimer, two hemes per dimer
T2 sequence (R4Z9I5 1-146): T1 sequence (R4Z9I5 1-146)

[5] = target: T3, PefR (Streptococcus agalactiae, UniProt Q8E4J9 1-146); experiment: EMSA; apo (heme-free); EMSA: 20 mM Tris-HCl pH 7.4, 50 mM KCl, 5% glycerol, 0.2 M MgCl2, room temperature; FP: 40 mM HEPES/Na pH 7.4, 500 mM NaCl, 10% glycerol, 10 nM DNA, room temperature; conditions: protein: recombinant; tags: C-terminal HRV3C site-6xHis, His tag removed by HRV3C protease (site remnant remains); chain copies: 2; label: 5'-FAM on antisense strand; blunt
T3 sequence: T1 sequence (R4Z9I5 1-146)

[6] = target: PefR H114A (Streptococcus agalactiae, UniProt Q8E4J9 1-146, H114A); experiment: fluorescence polarization; apo (heme-free); 1:1 dimer:dsDNA; EMSA: 20 mM Tris-HCl pH 7.4, 50 mM KCl, 5% glycerol, 0.2 M MgCl2, room temperature; FP: 40 mM HEPES/Na pH 7.4, 500 mM NaCl, 10% glycerol, 10 nM DNA, room temperature; conditions: protein: recombinant; tags: C-terminal HRV3C site-6xHis, removed; chain copies: 2; label: 5'-FAM on antisense strand; blunt
[7] = target: T3, PefR; experiment: fluorescence polarization; apo (heme-free); 1:1 dimer:dsDNA; 500 mM NaCl; EMSA: 20 mM Tris-HCl pH 7.4, 50 mM KCl, 5% glycerol, 0.2 M MgCl2, room temperature; FP: 40 mM HEPES/Na pH 7.4, 500 mM NaCl, 10% glycerol, 10 nM DNA, room temperature; conditions: protein: recombinant; tags: C-terminal HRV3C site-6xHis, His tag removed by HRV3C protease (site remnant remains); chain copies: 2; label: 5'-FAM on antisense strand; blunt
[8] = target: PefR R89A (Streptococcus agalactiae, UniProt Q8E4J9 1-146, R89A); experiment: EMSA; apo; 1:1 dimer:DNA, 5 uM; EMSA: 20 mM Tris-HCl pH 7.4, 50 mM KCl, 5% glycerol, 0.2 M MgCl2, room temperature; FP: 40 mM HEPES/Na pH 7.4, 500 mM NaCl, 10% glycerol, 10 nM DNA, room temperature; conditions: protein: recombinant; tags: C-terminal HRV3C site-6xHis, removed; chain copies: 2; label: 5'-FAM on antisense strand; blunt
[9] = target: PefR K63A (Streptococcus agalactiae, UniProt Q8E4J9 1-146, K63A); experiment: EMSA; apo; 1:1 dimer:DNA, 5 uM; similar to WT; EMSA: 20 mM Tris-HCl pH 7.4, 50 mM KCl, 5% glycerol, 0.2 M MgCl2, room temperature; FP: 40 mM HEPES/Na pH 7.4, 500 mM NaCl, 10% glycerol, 10 nM DNA, room temperature; conditions: protein: recombinant; tags: C-terminal HRV3C site-6xHis, removed; chain copies: 2; label: 5'-FAM on antisense strand; blunt
[10] = target: PefR S62A (Streptococcus agalactiae, UniProt Q8E4J9 1-146, S62A); experiment: as above; conditions: protein: recombinant; tags: C-terminal HRV3C site-6xHis, removed; chain copies: 2; label: 5'-FAM on antisense strand; blunt
[11] = target: PefR K53A (Streptococcus agalactiae, UniProt Q8E4J9 1-146, K53A); experiment: as above; conditions: protein: recombinant; tags: C-terminal HRV3C site-6xHis, removed; chain copies: 2; label: 5'-FAM on antisense strand; blunt
[12] = target: PefR S67A (Streptococcus agalactiae, UniProt Q8E4J9 1-146, S67A); experiment: as above; conditions: protein: recombinant; tags: C-terminal HRV3C site-6xHis, removed; chain copies: 2; label: 5'-FAM on antisense strand; blunt
[13] = target: PefR K75A (Streptococcus agalactiae, UniProt Q8E4J9 1-146, K75A); experiment: as above; conditions: protein: recombinant; tags: C-terminal HRV3C site-6xHis, removed; chain copies: 2; label: 5'-FAM on antisense strand; blunt
[14] = target: T3, PefR; experiment: X-ray crystallography; apo (heme-free), 2.5 A; EMSA: 20 mM Tris-HCl pH 7.4, 50 mM KCl, 5% glycerol, 0.2 M MgCl2, room temperature; FP: 40 mM HEPES/Na pH 7.4, 500 mM NaCl, 10% glycerol, 10 nM DNA, room temperature; conditions: protein: recombinant; tags: C-terminal HRV3C site-6xHis, His tag removed by HRV3C protease (site remnant remains); chain copies: 2; blunt

Question: Which results are given for “PefR (porphyrin-regulated efflux regulator) from Streptococcus agalactiae, non-His-tagged (natural protein)”?
Answer: stoichiometry N [1]: 2; stoichiometry N [2]: 2

Question: `[C-]#[O+]` [carbon monoxide] was tested. Which Kd [3] did it give?
Answer: Its Kd is 0.11 and 0.033 μM.

Question: With `C=CC1=C(C)C2=Cc3c(C=C)c(C)c4[n]3[Fe][n]3c(c(C)c(CCC(=O)O)c3=CC3=NC(=C4)C(C)=C3CCC(=O)O)=CC1=N2` [heme] as the molecule, how does the Kd [4] read?
Answer: Its Kd is 610 nM.

B1: pefRCD operator 28 bp (EMSA) (dsDNA)
DNA 1: TAAAATAGTTCTCACGATAACTATTAAA
DNA 2: TTTAATAGTTATCGTGAGAACTATTTTA
Question: Does B1 bind [5]?
Answer: Result: binds

B2: pefAB operator 38 bp (dsDNA)
DNA 1: GCTATTATAAAATAGTTCTCACGATAACTAAAATAATG
DNA 2: CATTATTTTAGTTATCGTGAGAACTATTTTATAATAGC
Question: B2 was tested. Which Kd [6] did it give?
Answer: The Kd was roughly 25 nM.

Question: What about the Kd [7] of the same molecule?
Answer: Its Kd is 40 nM.

B3: nontarget DNA (dsDNA)
DNA 1: GTTTTAAAACGACCTCTGTAGCGGTCGTTAAAGG
DNA 2: CCTTTAACGACCGCTACAGAGGTCGTTTTAAAAC
Question: Does B3 bind [5]?
Answer: Result: no binding

B4: target DNA (operon not stated) (dsDNA)
DNA 1: TAAAATAGTTCTCACGATAACTATTAAA
DNA 2: TTTAATAGTTATCGTGAGAACTATTTTA
Question: Does B4 bind [8]?
Answer: Result: no binding

Question: Does B4 bind [9]?
Answer: Result: binds

Question: Does B4 bind [10]?
Answer: Result: binds

Question: Does B4 bind [11]?
Answer: Result: binds

Question: Does B4 bind [12]?
Answer: Result: binds

Question: Does B4 bind [13]?
Answer: Result: binds

B5: pefRCD operator for crystal (dsDNA)
DNA 1: TAAAATAGTTCTCACGATAACTATTAAAT
DNA 2: ATTTAATAGTTATCGTGAGAACTATTTTA
Question: Does B5 bind [14]?
Answer: Result: binds

Reference: PMC8044140 (Communications Biology, 2021)
